Here are results for one molecule from patent US20020193308A1.

The target of this assay is polyclonal antibodies (lot RF29), raised in rabbits against natural isolate of UK114. The assay can be described thus: competition ELISA: soluble antigen titrated against rabbit antiserum (1:10,000) on plates coated with natural UK114; apparent Ka is the reciprocal of the antigen concentration at the A50 point. (In an ELISA, binding on a coated surface is turned into a signal by an enzyme label.)

B1: recombinant UK114 (E.coli-derived, SEQ ID NO:1) (protein)
chain: SSLVRRIISTAKAPAAIGPYSQAVLVDRTIYISGQLGMDPASGQLVPGGVVEEAKQALTNIGEILKAAGCDFTNVVKATVLLADINDFSAVNDVYKQYFQSSFPARAAYQVAALPKGGRVEIEAIAVQGPLTTASV
On to B1, for which the Ka amounted to 4.9e+08 M⁻¹.
